Test results from patent publication US20180355338A1.

How the values were obtained:
[1] = molecular target: TY-145 protease variant S173P, S175P, F180Y, L184F (Bacillus sp. TY-145); experiment: Ki fitted from Suc-AAPF-pNA activity; Model B detergent; ratio against m3 (without L184F)
[2] = molecular target: TY-145 protease variant K146T, S173P, S175P, F180Y (Bacillus sp. TY-145); experiment: Ki fitted from Suc-AAPF-pNA activity; Model B detergent; ratio against m3 (without K146T)
[3] = molecular target: TY-145 protease variant S173P, S175P, F180Y, R224G (Bacillus sp. TY-145); experiment: Ki fitted from Suc-AAPF-pNA activity; Model B detergent; ratio against m3 (without R224G)
[4] = molecular target: TY-145 protease variant L184F (Bacillus sp. TY-145); experiment: Ki fitted from Suc-AAPF-pNA activity; Model B detergent; relative to TY145 backbone
[5] = molecular target: TY-145 protease variant I150N (Bacillus sp. TY-145); experiment: as above
[6] = molecular target: TY-145 protease variant Q70N (Bacillus sp. TY-145); experiment: as above
[7] = molecular target: TY-145 protease variant S111R (Bacillus sp. TY-145); experiment: as above
[8] = molecular target: TY-145 protease variant I150S (Bacillus sp. TY-145); experiment: as above
[9] = molecular target: TY-145 protease variant Q70F (Bacillus sp. TY-145); experiment: as above
[10] = molecular target: TY-145 protease variant L184Y (Bacillus sp. TY-145); experiment: as above
[11] = molecular target: TY-145 protease variant R224G (Bacillus sp. TY-145); experiment: as above
[12] = molecular target: TY-145 protease variant Y240R (Bacillus sp. TY-145); experiment: as above
[13] = molecular target: TY-145 protease variant Q70A (Bacillus sp. TY-145); experiment: as above
[14] = molecular target: TY-145 protease variant S114A (Bacillus sp. TY-145); experiment: as above
[15] = molecular target: TY-145 protease variant G182A (Bacillus sp. TY-145); experiment: as above
[16] = molecular target: TY-145 protease variant S27K, Q70N, G107N, I121V, E127Q, S173P, S175P, F180Y, L184F, Q198E, T297P (Bacillus sp. TY-145); experiment: Ki fitted from Suc-AAPF-pNA activity; Model B detergent; ratio against m7 (without L184F)
[17] = molecular target: TY-145 protease variant S27K, S173P, G174K, S175P, F180Y, L184Y, Q197K, Q198E, T297P (Bacillus sp. TY-145); experiment: Ki fitted from Suc-AAPF-pNA activity; Model B detergent; ratio against m10 (without L184Y)
[18] = molecular target: TY-145 protease variant S27K, S171N, S173P, G174R, S175P, F180Y, L184F, Q198E, T297P (Bacillus sp. TY-145); experiment: Ki fitted from Suc-AAPF-pNA activity; Model B detergent; ratio against m4 (without L184F)
[19] = molecular target: TY-145 protease variant S27K, S171N, S173P, G174R, S175P, F180Y, Q198E, N199K, R224G, T297P (Bacillus sp. TY-145); experiment: Ki fitted from Suc-AAPF-pNA activity; Model B detergent; ratio against m11 (without R224G)
[20] = molecular target: TY-145 protease variant S173P, S175P, F180Y, L184Y (Bacillus sp. TY-145); experiment: Ki fitted from Suc-AAPF-pNA activity; Model B detergent; ratio against m3 (without L184Y)
[21] = molecular target: TY-145 protease variant S173P, S175P, F180Y, L184F (Bacillus sp. TY-145); experiment: Ki fitted from Suc-AAPF-pNA activity; Model B detergent; ratio against m3 (without L184F); second row of the same variant
[22] = molecular target: TY-145 protease variant S27K, S173P, G174K, S175P, F180Y, L184Y, Q198E, N199K, T297P (Bacillus sp. TY-145); experiment: Ki fitted from Suc-AAPF-pNA activity; Model B detergent; ratio against m8 (without L184Y)
[23] = molecular target: TY-145 protease variant K146A, S173P, S175P, F180Y (Bacillus sp. TY-145); experiment: Ki fitted from Suc-AAPF-pNA activity; Model B detergent; ratio against m3 (without K146A)
[24] = molecular target: TY-145 protease variant K146W, S173P, S175P, F180Y (Bacillus sp. TY-145); experiment: Ki fitted from Suc-AAPF-pNA activity; Tris buffer pH 8; ratio against m3 (without K146W)
[25] = molecular target: TY-145 protease variant I150N, S173P, S175P, F180Y (Bacillus sp. TY-145); experiment: Ki fitted from Suc-AAPF-pNA activity; Model B detergent; ratio against m3 (without I150N)
[26] = molecular target: TY-145 protease variant S27K, I121V, S171N, S173P, G174R, S175P, F180Y, Q198E, R224S, T297P (Bacillus sp. TY-145); experiment: Ki fitted from Suc-AAPF-pNA activity; Model B detergent; ratio against m6 (without R224S)

Substance: Z-Gly-Ala-NHCH(CH2C6H4pOH)C(OH)(SO3Na)-H, wherein Z is benzyloxycarbonyl (peptide)
- relative Ki mutation [1]: 0.31
- relative Ki mutation [2]: 0.08
- relative Ki mutation [3]: 0.47
- IF (binding constant improvement factor, relative Ki) [4]: 0.44
- IF (binding constant improvement factor, relative Ki) [5]: 0.27
- IF (binding constant improvement factor, relative Ki) [6]: 0.3
- IF (binding constant improvement factor, relative Ki) [7]: 0.9
- IF (binding constant improvement factor, relative Ki) [8]: 0.2
- IF (binding constant improvement factor, relative Ki) [9]: 0.12
- IF (binding constant improvement factor, relative Ki) [10]: 0.22
- IF (binding constant improvement factor, relative Ki) [11]: 0.6
- IF (binding constant improvement factor, relative Ki) [12]: 0.84
- IF (binding constant improvement factor, relative Ki) [13]: 0.39
- IF (binding constant improvement factor, relative Ki) [14]: 0.47
- IF (binding constant improvement factor, relative Ki) [15]: 0.54
- relative Ki mutation [16]: 0.37
- relative Ki mutation [17]: 0.32
- relative Ki mutation [18]: 0.18
- relative Ki mutation [19]: 0.74
- relative Ki mutation [20]: 0.24
- relative Ki mutation [21]: 0.27
- relative Ki mutation [22]: 0.21
- relative Ki mutation [23]: 0.34
- relative Ki mutation [24]: 0.16
- relative Ki mutation [25]: 0.35
- relative Ki mutation [26]: 0.56
